We go through three molecules from paper PMC8887125, “RBBP6 activates the pre-mRNA 3′ end processing machinery in humans” (Genes & Development, 2022).

Data set [1] addresses T1, CPSF73 (Homo sapiens, UniProt Q9UKF6).
T1 construct: gene CPSF3; CPSF73 within the purified recombinant seven-subunit CPSF complex (mPSF + mCF); with CPSF subunits (CPSF100, symplekin, CPSF160, WDR33, CPSF30, hFip1) with CStF, CFIIm and RBBP6 (1-335)
As to the kind of experiment: in vitro SV40 pre-mRNA cleavage assay with purified proteins, dose response by denaturing gel. The data set is classed as biochemical.

The target in data set [2] is T2, cleavage and polyadenylation specificity factor (CPSF), recombinant seven-subunit complex with hFip1 isoform 4 (human, UniProt Q10570 1-1443; Q9C0J8 1-576; O95639-2 1-244; Q6UN15 1-28; Q6UN15 44-393; Q9UKF6 …, F393K).
T2 construct: CPSF160, human; synthetic codon-optimised gene for the full-length protein; WDR33, human, residues 1-576 (unstructured region removed); CPSF30, human, isoform 2 (short isoform); synthetic gene for the isoform; hFip1, human; isoform 4 (UniProt Q6UN15-4) was built from residues 1-28 and 44-393 of the full-length protein; this piece is 1-28; second piece of isoform 4 (UniProt Q6UN15-4): residues …
The data set is described as follows: SEC; 2.5 µM CPSF, mCF or mCF_(symplekin ΔNTD) incubated with 10 µM SSU72 for 30 min on ice; Superose 6 Increase 3.2/300; HEPES-NaOH pH 8.0, 150 mM NaCl, 0.5 mM TCEP; peak fractions on SDS-PAGE. The settings on record: both partners purified.

In data set [3] the target is T3, mammalian cleavage factor (mCF), wild type: CPSF73, CPSF100 and symplekin (human, UniProt Q9UKF6 1-684; Q9P2I0 1-782; Q92797 1-1274).
T3 construct: CPSF73, human; synthetic gene for the full-length protein; CPSF100, human; symplekin, human; full coding region; also called mCFWT; source: Sf9 insect cells (baculovirus, pBig1), purified (Strep-Tactin, Resource Q, Superose 6); not shown: TEV site-StrepII (SII), C-terminal, kept; copies: + +
Described as above. Particulars: both partners purified.

The target of data set [4] is CPSF (seven subunits);RBBP6 1-335 (Homo sapiens;Homo sapiens, UniProt Q10570;Q9C0J8;O95639;Q6UN15-4;Q9UKF6;Q9P2I0;Q92797;Q7Z6E9 …, internal_change|). The data set is described as follows: size exclusion chromatography; 2.5 uM CPSF, 7.5 uM RBBP6, 5 uM RNA; RBBP6 substoichiometric; EMSA: 100 nM RNA, 15 min on ice, 10% native PAGE at 4 C (binding buffer not stated); SEC: HEPES-NaOH pH 8.0, 50 mM NaCl, 0.5 mM TCEP; pull-down: 20 mM HEPES-NaOH pH 8.0, 50 mM NaCl, 0.5 mM TCEP, 2 mM Mg(OAc)2, 4 C. The settings on record: protein: recombinant;recombinant; tags: StrepII on WDR33 and symplekin;C-terminal TEV-StrepII; copies: 1;1;1;1;1;1;1;1; label: 5'-FAM.

The target in data set [5] is T4, RBBP6 1-335 (Homo sapiens, UniProt Q7Z6E9 1-335).
T4 sequence: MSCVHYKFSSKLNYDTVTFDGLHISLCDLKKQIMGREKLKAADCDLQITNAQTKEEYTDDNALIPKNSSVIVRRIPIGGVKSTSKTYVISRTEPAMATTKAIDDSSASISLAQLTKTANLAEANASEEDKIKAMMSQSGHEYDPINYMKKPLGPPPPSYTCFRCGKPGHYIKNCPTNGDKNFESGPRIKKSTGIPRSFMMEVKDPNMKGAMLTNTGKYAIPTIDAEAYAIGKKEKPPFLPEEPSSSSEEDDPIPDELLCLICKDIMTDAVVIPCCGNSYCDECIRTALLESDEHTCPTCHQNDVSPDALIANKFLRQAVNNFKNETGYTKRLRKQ
The data set is described as follows: EMSA; no CPSF; 100 nM RNA; EMSA: 100 nM RNA, 15 min on ice, 10% native PAGE at 4 C (binding buffer not stated); SEC: HEPES-NaOH pH 8.0, 50 mM NaCl, 0.5 mM TCEP; pull-down: 20 mM HEPES-NaOH pH 8.0, 50 mM NaCl, 0.5 mM TCEP, 2 mM Mg(OAc)2, 4 C. The settings on record: protein: recombinant; tags: C-terminal TEV-StrepII; label: 5'-FAM.

Data set [6] concerns the target T5, RBBP6 P195G (Homo sapiens, UniProt Q7Z6E9 1-335, P195G).
T5 sequence: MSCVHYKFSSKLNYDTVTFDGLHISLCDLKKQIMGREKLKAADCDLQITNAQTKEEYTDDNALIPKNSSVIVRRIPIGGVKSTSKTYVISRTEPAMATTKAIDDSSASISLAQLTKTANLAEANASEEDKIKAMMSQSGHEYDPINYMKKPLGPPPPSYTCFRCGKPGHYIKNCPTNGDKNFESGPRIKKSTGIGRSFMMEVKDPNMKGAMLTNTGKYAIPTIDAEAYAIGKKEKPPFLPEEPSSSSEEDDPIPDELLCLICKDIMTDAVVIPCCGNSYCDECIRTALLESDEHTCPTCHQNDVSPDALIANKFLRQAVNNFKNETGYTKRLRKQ
As to the kind of experiment: EMSA; no CPSF; binding unaffected vs WT; EMSA: 100 nM RNA, 15 min on ice, 10% native PAGE at 4 C (binding buffer not stated); SEC: HEPES-NaOH pH 8.0, 50 mM NaCl, 0.5 mM TCEP; pull-down: 20 mM HEPES-NaOH pH 8.0, 50 mM NaCl, 0.5 mM TCEP, 2 mM Mg(OAc)2, 4 C. The settings on record: protein: recombinant; tags: C-terminal TEV-StrepII; label: 5'-FAM. On the technique in general: Mobility shift assays separate free from complexed probe on a gel.

Data set [7] deals with T6, RBBP6 Y228G (Homo sapiens, UniProt Q7Z6E9 1-335, Y228G).
T6 sequence: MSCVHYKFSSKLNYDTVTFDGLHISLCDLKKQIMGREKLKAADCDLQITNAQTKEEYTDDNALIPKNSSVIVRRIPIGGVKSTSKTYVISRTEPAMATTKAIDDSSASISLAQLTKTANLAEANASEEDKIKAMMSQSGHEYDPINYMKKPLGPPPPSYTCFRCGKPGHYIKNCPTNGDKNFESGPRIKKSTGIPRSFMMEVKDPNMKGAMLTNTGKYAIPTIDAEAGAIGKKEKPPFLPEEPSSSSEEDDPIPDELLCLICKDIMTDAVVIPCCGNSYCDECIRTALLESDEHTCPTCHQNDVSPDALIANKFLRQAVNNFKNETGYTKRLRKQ
The data set is described as above. Particulars: protein: recombinant; tags: C-terminal TEV-StrepII; label: 5'-FAM.

Data set [8] has as its target T7, RBBP6 D43K R74E (Homo sapiens, UniProt Q7Z6E9 1-335, D43K;R74E).
T7 sequence: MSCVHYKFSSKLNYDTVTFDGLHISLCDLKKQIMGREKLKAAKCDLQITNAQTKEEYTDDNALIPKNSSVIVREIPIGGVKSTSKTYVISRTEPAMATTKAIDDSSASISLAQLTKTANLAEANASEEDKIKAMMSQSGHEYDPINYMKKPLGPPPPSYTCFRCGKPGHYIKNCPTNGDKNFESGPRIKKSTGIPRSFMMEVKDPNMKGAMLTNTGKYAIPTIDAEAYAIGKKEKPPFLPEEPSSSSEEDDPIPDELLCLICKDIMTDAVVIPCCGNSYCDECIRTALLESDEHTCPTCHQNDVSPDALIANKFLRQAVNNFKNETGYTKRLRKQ
The data set is described as above. The settings on record: protein: recombinant; tags: C-terminal TEV-StrepII; label: 5'-FAM.

T3 sequence (Q9UKF6 whole entry, chain 1 of 3): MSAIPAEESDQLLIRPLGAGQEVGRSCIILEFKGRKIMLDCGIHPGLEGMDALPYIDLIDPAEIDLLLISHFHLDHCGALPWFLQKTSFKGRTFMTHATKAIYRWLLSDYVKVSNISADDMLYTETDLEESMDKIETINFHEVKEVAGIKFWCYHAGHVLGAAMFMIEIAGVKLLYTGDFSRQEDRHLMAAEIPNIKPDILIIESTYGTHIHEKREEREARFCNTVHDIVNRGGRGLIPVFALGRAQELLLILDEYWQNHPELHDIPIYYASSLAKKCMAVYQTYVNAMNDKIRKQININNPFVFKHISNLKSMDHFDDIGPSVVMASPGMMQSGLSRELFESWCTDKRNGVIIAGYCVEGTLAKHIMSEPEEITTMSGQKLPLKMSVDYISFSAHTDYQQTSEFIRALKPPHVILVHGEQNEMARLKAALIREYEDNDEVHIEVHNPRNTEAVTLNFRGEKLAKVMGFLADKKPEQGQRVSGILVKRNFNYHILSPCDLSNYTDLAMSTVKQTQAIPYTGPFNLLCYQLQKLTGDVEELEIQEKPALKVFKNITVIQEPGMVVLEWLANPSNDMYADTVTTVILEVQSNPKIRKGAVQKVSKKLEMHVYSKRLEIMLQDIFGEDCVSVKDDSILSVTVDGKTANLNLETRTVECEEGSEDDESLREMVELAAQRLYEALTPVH
T3 sequence (Q9P2I0 whole entry, chain 2 of 3): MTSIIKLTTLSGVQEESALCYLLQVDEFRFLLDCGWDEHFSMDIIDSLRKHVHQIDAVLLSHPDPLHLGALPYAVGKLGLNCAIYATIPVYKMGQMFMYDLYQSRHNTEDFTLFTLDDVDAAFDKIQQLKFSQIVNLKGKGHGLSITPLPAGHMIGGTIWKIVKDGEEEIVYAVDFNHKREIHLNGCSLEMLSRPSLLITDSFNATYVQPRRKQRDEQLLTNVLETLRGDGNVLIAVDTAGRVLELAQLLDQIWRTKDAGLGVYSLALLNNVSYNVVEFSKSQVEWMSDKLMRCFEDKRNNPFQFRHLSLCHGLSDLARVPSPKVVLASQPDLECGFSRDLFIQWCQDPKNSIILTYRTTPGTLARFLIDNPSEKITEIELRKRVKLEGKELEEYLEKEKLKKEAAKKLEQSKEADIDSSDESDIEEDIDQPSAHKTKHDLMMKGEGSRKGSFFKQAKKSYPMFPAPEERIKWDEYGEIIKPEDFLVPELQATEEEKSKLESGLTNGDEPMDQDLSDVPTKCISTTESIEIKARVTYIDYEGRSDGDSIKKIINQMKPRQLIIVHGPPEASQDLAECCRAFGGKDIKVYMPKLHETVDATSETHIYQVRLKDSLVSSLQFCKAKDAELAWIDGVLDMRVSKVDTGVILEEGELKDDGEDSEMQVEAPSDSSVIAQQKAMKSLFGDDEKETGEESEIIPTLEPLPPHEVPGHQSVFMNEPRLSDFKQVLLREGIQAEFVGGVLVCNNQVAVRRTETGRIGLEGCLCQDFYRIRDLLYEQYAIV
T3 sequence (Q92797 whole entry, chain 3 of 3): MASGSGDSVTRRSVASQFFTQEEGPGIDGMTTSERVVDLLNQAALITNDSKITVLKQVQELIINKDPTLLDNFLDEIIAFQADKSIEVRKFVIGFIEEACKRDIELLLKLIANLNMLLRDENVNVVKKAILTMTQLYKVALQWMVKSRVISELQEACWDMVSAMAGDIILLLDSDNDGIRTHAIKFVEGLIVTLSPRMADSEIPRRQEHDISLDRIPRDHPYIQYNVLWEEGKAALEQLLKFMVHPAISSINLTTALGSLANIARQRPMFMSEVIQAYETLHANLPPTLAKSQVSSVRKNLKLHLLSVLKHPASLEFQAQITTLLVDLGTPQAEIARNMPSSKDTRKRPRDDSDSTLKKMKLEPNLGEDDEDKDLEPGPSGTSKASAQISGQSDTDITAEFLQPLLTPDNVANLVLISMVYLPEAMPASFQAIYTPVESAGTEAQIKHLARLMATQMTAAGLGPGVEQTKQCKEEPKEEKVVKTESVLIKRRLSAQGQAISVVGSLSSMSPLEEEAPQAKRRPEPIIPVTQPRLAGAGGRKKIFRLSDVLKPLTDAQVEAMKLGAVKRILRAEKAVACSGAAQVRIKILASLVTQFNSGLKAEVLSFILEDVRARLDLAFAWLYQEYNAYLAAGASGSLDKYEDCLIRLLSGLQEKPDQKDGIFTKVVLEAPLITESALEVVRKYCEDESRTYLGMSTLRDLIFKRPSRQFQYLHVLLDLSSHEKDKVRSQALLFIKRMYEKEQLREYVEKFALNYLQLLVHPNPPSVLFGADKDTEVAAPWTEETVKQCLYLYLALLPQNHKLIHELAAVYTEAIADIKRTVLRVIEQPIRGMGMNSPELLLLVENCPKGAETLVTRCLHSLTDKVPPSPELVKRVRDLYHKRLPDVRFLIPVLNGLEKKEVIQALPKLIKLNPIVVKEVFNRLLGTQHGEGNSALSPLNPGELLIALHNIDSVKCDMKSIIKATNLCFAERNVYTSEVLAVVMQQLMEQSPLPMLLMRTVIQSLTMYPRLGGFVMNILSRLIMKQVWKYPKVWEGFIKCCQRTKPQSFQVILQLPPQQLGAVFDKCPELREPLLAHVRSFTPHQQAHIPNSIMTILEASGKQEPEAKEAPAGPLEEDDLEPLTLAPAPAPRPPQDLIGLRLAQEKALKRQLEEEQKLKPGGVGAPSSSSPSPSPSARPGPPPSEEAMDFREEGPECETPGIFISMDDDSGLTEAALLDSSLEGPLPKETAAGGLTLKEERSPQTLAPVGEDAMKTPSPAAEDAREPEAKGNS

Consider `CN1CCN(CCOc2c(Cl)cc(C(=O)N[C@@H](Cc3ccccc3)C(=O)O)c(O)c2Cl)CC1` [JTE-607 acid], for which the IC50 (commonly the concentration at which inhibition is half-maximal) in data set [1] is about 350 nM.

B1: SSU72 (enzyme, human, UniProt Q9NP77 1-194, looked up)
chain: MPSSPLRVAVVCSSNQNRSMEAHNILSKRGFSVRSFGTGTHVKLPGPAPDKPNVYDFKTTYDQMYNDLLRKDKELYTQNGILHMLDRNKRIKPRPERFQNCKDLFDLILTCEERVYDQVVEDLNSREQETCQPVHVVNVDIQDNHEEATLGAFLICELCQCIQHTEDMENEIDELLQEFEEKSGRTFLHTVCFY
notes: SSU72, human; the coding region amplified from the synthetic full-length gene; also called human SSU72; phosphatase SSU72; source: E. coli BL21(DE3) Star, purified (HisTrap, 3C cleavage, Superdex 75); not shown: His6, N-terminal, cleaved
On to B1, for which the binding result in data set [2] and in data set [3] was “binds” throughout.

B2: 5'-FAM-L3 41-nt RNA (ssRNA)
RNA: AUGAUCUAGGAGACACAAUAAAGGCAAUGUUUUUAUUUGUA
Turning to B2, the binding result in data set [4], in data set [5], in data set [6], in data set [7] and in data set [8] was “binds” each time.
